Assay results taken from patent publication US11807881B2, “Polypeptide, fusion polypeptide, and antibiotic against gram-negative bacteria comprising same” (priority 2020, dated 2023).

How the values were obtained:
gram negative bacterium = assay: CFU reduction evaluation on various gram negative bacterium; type: cell-based
Method: For this, Endolysin LNT101 and LNT102 at a concentration of 2 μM and each 1×10^6 CFU of Pseudomonas aeruginosa (PA01; ATCC 15692), Acinetobacter baumannii (ATCC 17978), Escherichia coli (ATCC 8739), Klebsiella pneumoniae (ATCC 13883), Enterobacter aerogenes (CCARM 16006), and Salmonella enteritidis (ATCC 13076) was added in reaction buffer (20 mM Tris-Cl, pH 7.5) so that the final volume was 200 μl, and it was left at 37° C. for 2 hours. In 2 hours, the number of colonies of each gram negative bacterium was confirmed, and the result was shown in FIG. 8 (in FIG. 8, PA90 represents endolysin LNT101 and mtPA90 represents endolysin LNT102, respectively).
The endolysin LNT102 at a concentration of 0.1, 0.5, 2.5 μM, and each 1×10^6 CFU of Pseudomonas aeruginosa, Acinetobacter baumannii, and Escherichia coli was added in reaction buffer (20 mM Tris-Cl, pH 7.5) so that the final volume was 200 μl, and it was left at 37° C. for 2 hours.
(§1) In order to confirm the killing ability against gram negative bacterium of the fusion polypeptide LNT103 prepared in Example 3.2, CFU reduction evaluation was performed for various gram negative bacterium. In order to perform the CFU reduction evaluation, 2 μM of each of LNT101, LNT102, and LNT103 prepared in Example 3, and 1×10^6 CFU of each of Pseudomonas aeruginosa (PA01; ATCC 15692), Acinetobacter baumannii (ATCC 17978), Escherichia coli (ATCC 8739), Klebsiella pneumoniae (ATCC 13883), and Enterobacter aerogenes (CCARM 16006) were added to reaction buffer (20 mM Tris-Cl, pH7.5) so that the final volume was 200 μl, and it was left at 37° C. for 2 hours. After that, the number of the colonies of each gram negative bacterium was confirmed to compare and evaluate the antibiotic effect of each polypeptide. As a control group, the PBS treatment group (treating PBS in the same volume as the fusion polypeptide) was used.
In addition, the same test was performed by using the fusion polypeptide LNT103, and CecA-LNT101 at a concentration of 2 μM, and the result was shown in FIG. 15. For comparison, the same test was performed for groups treated with LNT102 or PBS.
On the other hand, in order to compare the antibacterial activity in case that a protein other than endolysin (LNT102 or LNT101) was fused to Cecropin A, the killing ability against gram negative bacterium of the fusion polypeptide LNT103 and cecropin A-EGFP fusion protein (a protein in which EGFP (GenBank Accession No. AAB02572.1) having no endolysin activity by replacing LNT102 in LNT103) was evaluated. For this, the proteins were treated in an amount of 0.2 μM or 2 μM, respectively, to perform the CFU reduction test. […] In particular, it could be confirmed that the CFU Counting result for all the tested gram negative bacterium killed all bacterium treated with 0, when LNT103 2 μM was treated.
Furthermore, the killing ability against gram negative bacterium according to the concentration and/or treatment time of the fusion polypeptide LNT103 was tested. Specifically, the fusion polypeptide LNT103 at a concentration of 0.1, 0.3, 0.9, or 2.7 μM and 1×10^6 CFU of Pseudomonas aeruginosa (PA01; ATCC 15692) or Acinetobacter baumannii (ATCC 19606) were added to reaction buffer (20 mM Tris-Cl, pH7.5) so that the final volume was 200 μl, and it was left at 37° C. for 2 hours, and then the number of the colonies was confirmed, and the result was shown in A of FIG. 17.
In addition, the fusion polypeptide LNT103 at a concentration of 2 μM and 1×10^6 CFU of Pseudomonas aeruginosa (PA01; ATCC 15692) were added to reaction buffer (20 mM pH7.5) so that the final volume was 200 μl, and in 0, 20 minutes, 40 minutes and 60 minutes at 37° C., the number of the colonies was confirmed, and the result was shown in B of FIG. 17. […]

Acinetobacter baumannii = assay: CFU reduction test; type: cell-based
Method: In addition, that the LNT101 endolysin had the antibacterial ability in various gram negative bacterium was confirmed by a CFU reduction test, and the result was shown in Table 2 below.
as §1

B1: LNT103: fusion polypeptide [Cecropin A]-[linker (GSGSGS)]-[endolysin LNT102]; SEQ ID NO: 15 (MAS, His tag) used in the tests (protein)
chain: MASKWKLFKKIEKVGQNIRDGIIKAGPAVAVVGQATQIAKGSGSGSMGTVLKRGDRGSAVEDLQMKLNVAGYNLSADGIFGGDTEKAVRDVQAGAGLVVDGKVGPKTLYAIAKSATVPAKWEAIPFPTANKSRSAAMPTLNAVGAMTGVDSRLLATFASIESAFDYTVKAKTSSATGWFQFLDATWDDMIKAYGSKYGIPKDPTRALRKDPRANALMGAEFIKGNAAVLRPVINREPSDTDLYLAHFLGAGGAKKFLSADQKTLGEVLFPKPAKANPSIFSNKGVPRTLAEIYKLFEDKVSKHRALEHHHHHH
modifications: synthetic_Fusion Polypeptide LNT103 with MAS, His tag, and extra sequence
Gram negative bacterium; 0.2 μM or 2 μM (FIG. 16)
  antibacterial activity (CFU reduction test): had excellent antibacterial activity
Gram negative bacterium; 2 μM, 2 hours, 37° C., 1×10^6 CFU of each gram negative bacterium
  CFU reduction effect compared to LNT101 and LNT102: 1.5˜5.5 log CFU/ml
Gram negative bacterium; 2 μM, all the tested bacterium (FIG. 15)
  counting result: 0 log CFU/ml
Gram negative bacterium; LNT103 2 μM, all the tested gram negative bacterium (FIG. 16)
  CFU Counting result: 0
Gram negative bacterium; P. aeruginosa PA01 and A. baumannii ATCC 19606, 0.1-2.7 μM 2 hours, 2 μM 0-60 minutes, 1 μM 0-10 minutes
  killing ability (number of colonies): had the killing ability against gram negative bacterium in a concentration and time-dependent manner
Acinetobacter baumannii; Acinetobacter baumannii (ATCC 19606, ATCC 17978), 2 μM, 2 hours
  CFU Counting result: 0 log CFU/ml

B2: LNT101: endolysin derived from bacteriophage PBPA90, amino acid sequence SEQ ID NO: 1 (259 aa), purified with 6× His tag (protein)
chain: MGTVLKRGDRGSAVEDLQMKLRVAGYAVSADGIFGGDTEKAVRDFQASKALVVDGKVGPATLAELAKSATVPAKWEAIPFPTANKSRSAAMPTLNAVGAMTGTDSRLLATFASIESAFDYTVKASTSSATGWFQFLDATWDDMIKAHGSKYGIPKDPTRALRKDPRANALMGAEFLKGNAAVLRPVINREPSDTDLYLAHFLGAGGAKKFLSADQKTLGEVLFPKPAKANPSIFSNKGVPRTLAEIYKLFEDKVSKHRA
modifications: 6xHis tag; synthetic_Endolysin LNT101
Gram negative bacterium; 2 μM, 2 hours, 37° C., P. aeruginosa PA01, A. baumannii ATCC 17978, E. coli ATCC 8739, K. pneumoniae ATCC 13883, E. aerogenes CCARM 16006, S. enteritidis ATCC 13076
  killing ability (number of colonies): excellent killing ability compared to the control group
Acinetobacter baumannii; A. baumannii ATCC 2508
  CFU reduction: ◯ (‘◯’ means reduction of 0.5 log CFU or more through the CFU reduction assay)
Acinetobacter baumannii; A. baumannii F4
  CFU reduction: ◯ (‘◯’ means reduction of 0.5 log CFU or more through the CFU reduction assay)
Acinetobacter baumannii; A. baumannii F15
  CFU reduction: ◯ (‘◯’ means reduction of 0.5 log CFU or more through the CFU reduction assay)
